Values quoted from earlier work in paper PMC6753016.
Where two headings read alike, the source gives them in different places.

Legend:
Trypsin (Bos taurus) [1] = molecular target: Trypsin (Bos taurus) (UniProt P00760)
[2] = molecular target: β-tryptase (Homo sapiens) (UniProt Q15661)
[3] = molecular target: Kallikrein 4 (Homo sapiens) (UniProt Q9Y5K2)
[4] = molecular target: Matriptase (Homo sapiens) (UniProt Q9Y5Y6)
Plasmin (Homo sapiens) [5] = molecular target: Plasmin (Homo sapiens) (UniProt P00747)
Trypsin (Bos taurus) [6] = molecular target: Trypsin (Bos taurus) (UniProt P00760); remark: listed apart in the source
[7] = molecular target: Factor XIIa (Homo sapiens) (UniProt P00748)
[8] = molecular target: Carboxypeptidase B (Sus scrofa) (UniProt P09955)
[9] = molecular target: Carboxypeptidase A (Bos taurus) (UniProt P00730)
Cathepsin L [10] = molecular target: Cathepsin L (UniProt P07711)
Target sequence in this assay (P07711 292-333): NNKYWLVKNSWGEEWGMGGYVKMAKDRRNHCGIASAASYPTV

Cathepsin B [11] = molecular target: Cathepsin B (UniProt P07858)
[12] = molecular target: Clostripain (Hathewaya histolytica) (UniProt P09870)
Dipeptidyl peptidase I = Dipeptidyl peptidase I (UniProt P53634)
Cathepsin L [13] = molecular target: Cathepsin L (UniProt P07711); remark: listed apart in the source
Target sequence in this assay (P07711 114-288, chain 1 of 2): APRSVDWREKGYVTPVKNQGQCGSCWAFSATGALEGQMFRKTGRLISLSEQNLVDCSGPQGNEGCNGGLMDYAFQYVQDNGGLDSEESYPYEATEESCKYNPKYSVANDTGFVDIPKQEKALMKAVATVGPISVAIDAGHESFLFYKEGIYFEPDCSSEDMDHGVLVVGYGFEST
Target sequence in this assay (P07711 292-333, chain 2 of 2): as the sequence (P07711 292-333) above

Clostripain = Clostripain (UniProt P09870)
Cathepsin B [14] = molecular target: Cathepsin B (UniProt P07858); remark: listed apart in the source
[15] = molecular target: Hageman factor (Homo sapiens) (UniProt P00748)
β-Trypsin (Bos taurus) = β-Trypsin (Bos taurus) (UniProt P00760)
[16] = molecular target: Chymotrypsin (Bos taurus) (UniProt P00766)
Trypsin (Bos taurus) [17] = molecular target: Trypsin (Bos taurus) (UniProt P00760); remark: listed apart in the source
[18] = molecular target: Factor XIIa (Homo sapiens) (UniProt P00748); remark: listed apart in the source
[19] = molecular target: Plasma kallikrein (Homo sapiens) (UniProt P03952)
[20] = molecular target: Neutrophil elastase (Homo sapiens) (UniProt P08246)
Plasmin (Homo sapiens) [21] = molecular target: Plasmin (Homo sapiens) (UniProt P00747); remark: listed apart in the source
[22] = molecular target: Mast cell chymase (Homo sapiens) (UniProt P23946)
[23] = molecular target: Cathepsin G (Homo sapiens) (UniProt P08311)
Trypsin (Bos taurus) [24] = molecular target: Trypsin (Bos taurus) (UniProt P00760); remark: listed apart in the source
Duadenase (Bos taurus) = Duadenase (Bos taurus) (UniProt P80219)
Leukocyte elastase [25] = molecular target: Leukocyte elastase (UniProt P08246)
[26] = molecular target: Chymotrypsin (Bos taurus) (UniProt P00766); remark: listed apart in the source
Cathepsin L [27] = molecular target: Cathepsin L (UniProt P07711); remark: listed apart in the source
Target sequence in this assay (P07711 292-333): as above

[28] = molecular target: Pancreatic elastase (Sus scrofa) (UniProt P00772)
Leukocyte elastase [29] = molecular target: Leukocyte elastase (UniProt P08246); remark: listed apart in the source
Cathepsin L [30] = molecular target: Cathepsin L (UniProt P07711); remark: listed apart in the source
Target sequence in this assay (P07711 114-288, chain 1 of 2): as the sequence (P07711 114-288, chain 1 of 2) above
Target sequence in this assay (P07711 292-333, chain 2 of 2): as the sequence (P07711 292-333) above

Cathepsin H [31] = molecular target: Cathepsin H (UniProt P09668)
Cathepsin H [32] = molecular target: Cathepsin H (UniProt P09668); remark: listed apart in the source
Target sequence in this assay (P09668 116-335): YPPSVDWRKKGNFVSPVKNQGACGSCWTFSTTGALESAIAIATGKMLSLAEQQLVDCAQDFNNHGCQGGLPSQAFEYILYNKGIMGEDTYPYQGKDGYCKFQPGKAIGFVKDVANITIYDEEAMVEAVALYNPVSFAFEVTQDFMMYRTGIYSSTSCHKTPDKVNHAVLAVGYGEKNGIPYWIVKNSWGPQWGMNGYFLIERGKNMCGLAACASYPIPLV

Factor Xa (Homo sapiens) [33] = molecular target: Factor Xa (Homo sapiens) (UniProt P00742)
[34] = molecular target: Plasma kallikrein (Homo sapiens) (UniProt P03952); remark: listed apart in the source
[35] = molecular target: Factor XIIa (Homo sapiens) (UniProt P00748); remark: listed apart in the source
Trypsin (Bos taurus) [36] = molecular target: Trypsin (Bos taurus) (UniProt P00760); remark: listed apart in the source
[37] = molecular target: Kallikrein (Homo sapiens) (UniProt P03952)
[38] = molecular target: Factor XIIa (Homo sapiens) (UniProt P00748); remark: listed apart in the source
Factor Xa (Homo sapiens) [39] = molecular target: Factor Xa (Homo sapiens) (UniProt P00742); remark: listed apart in the source
Plasmin (Homo sapiens) [40] = molecular target: Plasmin (Homo sapiens) (UniProt P00747); remark: listed apart in the source
[41] = molecular target: Chymotrypsin (Bos taurus) (UniProt P00766); remark: listed apart in the source
Trypsin (Bos taurus) [42] = molecular target: Trypsin (Bos taurus) (UniProt P00760); remark: listed apart in the source
[43] = molecular target: Factor XIIa (Homo sapiens) (UniProt P00748); remark: listed apart in the source
[44] = molecular target: Cathepsin G (Homo sapiens) (UniProt P08311); remark: listed apart in the source
[45] = molecular target: Factor XIIa (Homo sapiens) (UniProt P00748); remark: listed apart in the source
Trypsin (Bos taurus) [46] = molecular target: Trypsin (Bos taurus) (UniProt P00760); remark: listed apart in the source
[47] = molecular target: Factor XIIa (Homo sapiens) (UniProt P00748); remark: listed apart in the source
[48] = molecular target: Chymotrypsin (Bos taurus) (UniProt P00766); remark: listed apart in the source
[49] = molecular target: Plasma kallikrein (Homo sapiens) (UniProt P03952); remark: listed apart in the source
Plasmin (Homo sapiens) [50] = molecular target: Plasmin (Homo sapiens) (UniProt P00747); remark: listed apart in the source
Trypsin (Bos taurus) [51] = molecular target: Trypsin (Bos taurus) (UniProt P00760); remark: listed apart in the source

LCTI-II, sequence (P25850 whole entry): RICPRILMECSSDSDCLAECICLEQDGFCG
Trypsin (Bos taurus), sequence (P00760 149-246): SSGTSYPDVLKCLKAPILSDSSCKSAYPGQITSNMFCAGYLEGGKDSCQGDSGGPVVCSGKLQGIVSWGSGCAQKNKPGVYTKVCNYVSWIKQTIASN
Factor XIIa (Homo sapiens), sequence (P00748 whole entry, looked up): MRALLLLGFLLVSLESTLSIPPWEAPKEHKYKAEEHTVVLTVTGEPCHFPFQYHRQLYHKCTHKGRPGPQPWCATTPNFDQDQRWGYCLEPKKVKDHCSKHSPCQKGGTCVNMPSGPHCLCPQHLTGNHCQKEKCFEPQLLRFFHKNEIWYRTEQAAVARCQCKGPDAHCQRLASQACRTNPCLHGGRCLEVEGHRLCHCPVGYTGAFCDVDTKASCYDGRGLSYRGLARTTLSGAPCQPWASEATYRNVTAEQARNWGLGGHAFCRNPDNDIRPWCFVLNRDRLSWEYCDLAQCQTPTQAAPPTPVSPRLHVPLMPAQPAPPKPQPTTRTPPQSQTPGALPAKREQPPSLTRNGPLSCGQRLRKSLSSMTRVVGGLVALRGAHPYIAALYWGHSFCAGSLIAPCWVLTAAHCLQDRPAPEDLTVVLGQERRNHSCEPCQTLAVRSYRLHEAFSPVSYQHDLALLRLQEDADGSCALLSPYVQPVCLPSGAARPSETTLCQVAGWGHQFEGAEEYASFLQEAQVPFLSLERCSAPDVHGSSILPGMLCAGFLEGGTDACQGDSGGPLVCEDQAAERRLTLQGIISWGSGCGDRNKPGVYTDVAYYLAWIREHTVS
Cruzipain inhibitor (BbCI), sequence (P83051 whole entry): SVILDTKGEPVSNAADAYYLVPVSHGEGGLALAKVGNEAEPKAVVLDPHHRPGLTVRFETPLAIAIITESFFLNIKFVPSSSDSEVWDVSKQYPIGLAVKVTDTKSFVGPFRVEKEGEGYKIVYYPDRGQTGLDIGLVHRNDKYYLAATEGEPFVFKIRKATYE
LLDTI-II, sequence (P26771 2-30): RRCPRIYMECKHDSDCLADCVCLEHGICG
ATSI, sequence (P80211 whole entry): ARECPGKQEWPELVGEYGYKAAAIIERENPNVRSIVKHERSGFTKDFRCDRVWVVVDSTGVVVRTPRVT
Plasma kallikrein (Homo sapiens), sequence (P03952 391-638): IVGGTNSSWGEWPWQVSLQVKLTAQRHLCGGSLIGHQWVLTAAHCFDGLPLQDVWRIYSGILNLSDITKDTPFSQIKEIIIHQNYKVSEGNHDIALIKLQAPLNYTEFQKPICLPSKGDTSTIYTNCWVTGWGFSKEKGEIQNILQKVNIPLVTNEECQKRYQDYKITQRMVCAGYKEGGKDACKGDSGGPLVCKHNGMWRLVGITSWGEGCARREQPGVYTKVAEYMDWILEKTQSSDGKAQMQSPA
SKTI-31, sequence (P01070 25-205): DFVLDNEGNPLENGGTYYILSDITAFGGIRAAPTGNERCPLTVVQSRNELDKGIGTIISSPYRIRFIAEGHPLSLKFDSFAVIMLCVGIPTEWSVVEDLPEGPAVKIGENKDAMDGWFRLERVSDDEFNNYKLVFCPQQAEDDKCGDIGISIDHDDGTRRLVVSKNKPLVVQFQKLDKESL
MCoTI-II, sequence (P82409 whole entry): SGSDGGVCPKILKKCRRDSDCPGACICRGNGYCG
Plasmin (Homo sapiens), sequence (P00747 581-810): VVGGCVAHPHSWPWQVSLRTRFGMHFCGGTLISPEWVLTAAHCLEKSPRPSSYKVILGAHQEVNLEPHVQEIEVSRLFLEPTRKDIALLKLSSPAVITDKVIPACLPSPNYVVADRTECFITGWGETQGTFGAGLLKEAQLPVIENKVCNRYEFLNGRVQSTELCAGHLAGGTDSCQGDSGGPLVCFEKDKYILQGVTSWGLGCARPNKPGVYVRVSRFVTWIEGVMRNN
Soybean BBI, sequence (P01055 40-110): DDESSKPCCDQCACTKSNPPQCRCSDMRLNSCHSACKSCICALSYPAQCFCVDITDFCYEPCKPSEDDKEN
EcTI, sequence (P86451 1-134): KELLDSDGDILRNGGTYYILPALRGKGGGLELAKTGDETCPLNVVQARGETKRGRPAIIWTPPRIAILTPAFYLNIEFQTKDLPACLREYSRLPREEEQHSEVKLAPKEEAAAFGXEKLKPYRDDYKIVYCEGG
EcTI, sequence (P86451 135-174): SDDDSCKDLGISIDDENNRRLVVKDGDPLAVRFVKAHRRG
Potato CPI, sequence (P01075 whole entry): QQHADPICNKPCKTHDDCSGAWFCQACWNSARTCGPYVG
Oryzacystatin-II, sequence (P20907 whole entry): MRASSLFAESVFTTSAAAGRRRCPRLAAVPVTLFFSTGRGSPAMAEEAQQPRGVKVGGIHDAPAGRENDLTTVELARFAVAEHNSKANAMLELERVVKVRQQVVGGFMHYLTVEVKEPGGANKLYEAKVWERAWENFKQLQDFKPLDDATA
Cathepsin G (Homo sapiens), sequence (P08311 21-243): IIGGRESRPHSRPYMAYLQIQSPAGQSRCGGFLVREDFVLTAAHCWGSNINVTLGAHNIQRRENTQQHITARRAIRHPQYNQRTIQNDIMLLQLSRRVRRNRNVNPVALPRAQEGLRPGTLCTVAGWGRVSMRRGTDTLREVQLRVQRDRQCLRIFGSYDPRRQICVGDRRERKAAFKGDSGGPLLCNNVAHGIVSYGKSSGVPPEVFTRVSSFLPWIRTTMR
CMTI-I, sequence (P01074 whole entry): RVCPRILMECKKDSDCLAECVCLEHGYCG
Factor Xa (Homo sapiens), sequence (P00742 235-488): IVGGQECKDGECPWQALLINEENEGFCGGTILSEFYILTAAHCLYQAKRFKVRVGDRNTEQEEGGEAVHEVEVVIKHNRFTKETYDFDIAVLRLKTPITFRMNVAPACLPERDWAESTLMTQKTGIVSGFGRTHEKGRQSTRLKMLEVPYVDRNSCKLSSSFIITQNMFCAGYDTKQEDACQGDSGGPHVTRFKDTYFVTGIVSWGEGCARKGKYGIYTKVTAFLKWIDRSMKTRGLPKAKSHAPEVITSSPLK
Leukocyte elastase, sequence (P08246 30-267): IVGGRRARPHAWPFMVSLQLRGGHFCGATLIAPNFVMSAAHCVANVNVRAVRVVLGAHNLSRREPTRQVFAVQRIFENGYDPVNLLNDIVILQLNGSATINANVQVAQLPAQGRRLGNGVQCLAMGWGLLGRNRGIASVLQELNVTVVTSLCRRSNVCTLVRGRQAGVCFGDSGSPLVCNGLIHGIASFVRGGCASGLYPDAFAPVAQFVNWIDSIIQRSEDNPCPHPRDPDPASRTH
CMTI-V, sequence (P19873 whole entry): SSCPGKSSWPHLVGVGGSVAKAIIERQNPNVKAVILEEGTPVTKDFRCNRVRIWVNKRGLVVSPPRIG
Enterolobium EcTI, sequence (P86451 1-134): as the sequence (P86451 1-134) above
Enterolobium EcTI, sequence (P86451 135-174): as the sequence (P86451 135-174) above
β-Trypsin (Bos taurus), sequence (P00760 149-246): as the sequence (P00760 149-246) above
Mast cell chymase (Homo sapiens), sequence (P23946 22-247): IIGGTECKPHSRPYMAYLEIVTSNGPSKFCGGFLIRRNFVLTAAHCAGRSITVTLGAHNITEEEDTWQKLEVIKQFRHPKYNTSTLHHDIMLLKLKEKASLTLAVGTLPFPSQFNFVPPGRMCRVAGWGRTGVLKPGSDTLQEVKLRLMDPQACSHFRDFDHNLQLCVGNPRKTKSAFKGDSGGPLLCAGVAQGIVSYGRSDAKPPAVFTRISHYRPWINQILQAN
Dipeptidyl peptidase I, sequence (P53634 25-134, chain 1 of 3): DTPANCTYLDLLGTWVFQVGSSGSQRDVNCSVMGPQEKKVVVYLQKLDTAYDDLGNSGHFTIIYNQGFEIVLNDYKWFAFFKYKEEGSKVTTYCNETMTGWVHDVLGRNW
Dipeptidyl peptidase I, sequence (P53634 231-394, chain 2 of 3): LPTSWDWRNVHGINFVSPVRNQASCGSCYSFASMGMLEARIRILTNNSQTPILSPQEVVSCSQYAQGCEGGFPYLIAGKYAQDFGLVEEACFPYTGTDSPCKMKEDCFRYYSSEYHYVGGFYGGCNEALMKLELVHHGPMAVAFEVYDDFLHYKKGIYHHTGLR
Dipeptidyl peptidase I, sequence (P53634 395-463, chain 3 of 3): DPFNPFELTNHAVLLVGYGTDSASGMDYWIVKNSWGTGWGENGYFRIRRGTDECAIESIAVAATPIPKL

## RATI (from UniProt P01087)
Trypsin (Bos taurus) [1]
  Ki: 1.2 nM

## MCoTI-II (from UniProt P82409)
[2]
  Ki: 600 nM
[3]
  Ki: 1.6 nM
[4]
  Ki: 9 nM
Plasmin (Homo sapiens) [5]
  Ki: 28 nM
Trypsin (Bos taurus) [6]
  Ki: 0.0023 nM
[7]
  Ki: 750 nM

## Potato CPI (from UniProt P01075)
[8]
  Ki: 4 nM
[9]
  Ki: 2 nM

## PCPI 8.3 (from UniProt P20347)
Cathepsin L [10]
  Ki: 0.07 nM
Cathepsin B [11]
  Ki: 320 nM
[12]
  Ki: > 500 nM
Dipeptidyl peptidase I
  Ki: > 500 nM
Cathepsin L [13]
  Ki: 0.07 nM
Clostripain
  Ki: > 500 nM
Cathepsin B [14]
  Ki: 320 nM

## CMTI-I (from UniProt P01074)
[15]
  Kd: 41 nM
β-Trypsin (Bos taurus)
  Kd: 13 nM

## Enterolobium EcTI (from UniProt P86451)
[16]
  Ki: 1.1 nM
Trypsin (Bos taurus) [17]
  Ki: 0.8 nM

## EcTI (from UniProt P86451)
[18]
  Ki: 82 nM
[19]
  Ki: 6.1 nM
[20]
  Ki: 55 nM
Plasmin (Homo sapiens) [21]
  Ki: 9.4 nM

## Soybean BBI (from UniProt P01055)
[22]
  Ki: 0.5 nM
[23]
  Ki: 6400 nM
Trypsin (Bos taurus) [24]
  Ki: 4 nM
Duadenase (Bos taurus)
  Ki: 0.4 nM
Leukocyte elastase [25]
  Ki: 2.3 nM
[26]
  Ki: 29 nM

## Cruzipain inhibitor (BbCI) (from UniProt P83051)
Cathepsin L [27]
  Ki: 2.2 nM
[28]
  Ki: 4 nM
Leukocyte elastase [29]
  Ki: 5.3 nM
Cathepsin L [30]
  Ki: 2.2 nM

## Oryzacystatin-II (from UniProt P20907)
Cathepsin H [31]
  Ki: 25 nM
Cathepsin H [32]
  Ki: 25 nM

## LLDTI-II (from UniProt P26771)
Factor Xa (Homo sapiens) [33]
  Ki: 41000 nM
[34]
  Ki: 27000 nM
[35]
  Ki: 1400 nM
Trypsin (Bos taurus) [36]
  Ki: 0.096 nM

## LCTI-II (from UniProt P25850)
[37]
  Ki: 0.096 nM
[38]
  Ki: 75 nM
Factor Xa (Homo sapiens) [39]
  Ki: 780000 nM

## ATSI (from UniProt P80211)
Plasmin (Homo sapiens) [40]
  Ki: 38 nM
[41]
  Ki: 0.41 nM
Trypsin (Bos taurus) [42]
  Ki: 0.34 nM
[43]
  Ki: 440 nM
[44]
  Ki: 120 nM

## CMTI-V (from UniProt P19873)
[45]
  Ki: 41 nM
Trypsin (Bos taurus) [46]
  Ki: 16 nM

## SKTI-31 (from UniProt P01070)
[47]
  Ki: 1400 nM
[48]
  Ki: 70 nM
[49]
  Ki: 5.7 nM
Plasmin (Homo sapiens) [50]
  Ki: 190 nM

## VhTI (from UniProt P85981)
Trypsin (Bos taurus) [51]
  Ki: < 1 nM
